Source: a protein production outcome set (Wang et al. 2014)

Assay: label from the status in PepcDB records

Row | Sequence | protein production
1 | MPASPEESAMTPWTPIARLEEIPRQGARVVATPEGAIAVFRTLDDRVFALLDRCPHKGGPLSQGIVHGARVACPLHNWVIELDSGQAVAPDEGCVRRFETRLEDGMVAIALPDSLVGTLEHHHHHH | not failed
2 | MKVLGYGREKKVILEAPNYDNDCVLANILAAHYLSSFDPVRARSYALAAESRLGKATLYEKAVFEAVSYLLSENMDDDVALELHSKLLKKFPKDLLSWKRVETLCSYMGRHDLSLPLFRKILPQNEGQVYVNGMLAFCLIELGHLREAEEAARKGCEINENDSWAHHALCHVLQTECRFKEAVKFMEEHSDSWDSCSSLRFSHNWWHVAVCYLEGGSHISKVEEVYDHQMWKELEKDDAVARDVYTDALGLLLRLDTRGKLDDGFQDRLEKLADSLTDKAMWYQDWLFDITTIWALSKVEKTSLAHELLEGLKSRTSAMNPKKQKLMQKAILLAEAVYEYGKGNYEIALELLGLDFDAANYKVIGGSGLQMDVFNEIWYKLLLLNGKSSTGTLLKNTIISIYFGYIFVFSATNSAFTTPEPAAIEVLEKVTKQRDGAPFLWRLLEESYSMEGKEKAGISAGKKAKALESSYFKSA | failed
3 | MSDVTQQKKRKRSKGEVNPSKPTVDEEITDPSSNEDEQLEVSDEEDALESEEEFEGENPADKRRRLAKQYLENLKSEANDILTDNRNAEEKDLNNLKERTIDEYNNFDAGDLDKDIIASRLKEDVAEQQGRVFRYFGDKLLISEAKQSFTRVGENNLTCISCFQPVLNKYTFEESSNGDKNKGRLFAYTVSKDLQLTKYDITDFSKRPKKLKYAKGGAKYIPTSKHEYENTTEGHYDEILTVAASPDGKYVVTGGRDRKLIVWSTESLSPVKVIPTKDRRGEVLSLAFRKNSDQLYASCADFKIRTYSINQFSQLEILYGHHDIVEDISALAMERCVTVGARDRTAMLWKIPDETRLTFRGGDEPQKLLRRWMKENAKEGEDGEVKYPDESEAPLFFCEGSIDVVSMVDDFHFITGSDNGNICLWSLAKKKPIFTERIAHGILPEPSFNDISGETDEELRKRQLQGKKLLQPFWITSLYAIPYSNVFISGSWSGSLKVWKISDNLRSFELLGELSGAKGVVTKIQVVESGKHGKEKFRILASIAKEHRLGRWIANVSGARNGIYSAVIDQTGF | failed
4 | MAVFHDEVEIEDFQYDEDSETYFYPCPCGDNFAITKEDLENGEDVATCPSCSLIIKVIYDKDQFMCGETV | not failed
5 | MPHSTTEPRRDMPDALISIVIPCRNEAANLPLLIDEIEAAMAGRHFELIIVNDGSTDETAAVLTEQAALRSFPVRELRHQKSAGQSLSVRSGAWAARGGIVATIDGDGQNDPQYIPVLVDALRQAGPDFGAAQGQRLKRRDSKVKQLASRFANWLRNAILHDETRDTGCGLKAVHTEILRKLPFFDGTHRFVPALVIQEGYRVVHCDVVDRSRRHGKSNYGIFDRGLQGALDLGGVWWLRRRRRRMPKVEEIKRV | failed
6 | MASFQQYKTKTGYKWLFKMGVGIDPKTGNRKTTTRRGFKTKKEAVAAAAEFQKEIDNNALARNDITFEDVFKEWWDVHSKTIKRSTRYRKLSNFKKHILPHFGKLKIKDITRAYCQKVINLIAQDIDSVQNVKIQANLVFKYALRMEYITKNPMEFVVIPKKEENFLSQEEEKRNFWEKDEIKTFLEKAHSQLAPQDYVMFYVLIFTGMRKGELIALEWKDVDLKEKTINIKQTMFFENGKEVIQTTKKYHSKRIITIDDQTAQILKKWRTQQKEMLLSNGITSEAKYVLIRGDMRPLRLAYPNDLLNRMITKNKLHRITIHGFRHSHASILFEAGASIKEVQARLGHKEIQTTMNIYTHVTKTAKAKTAETFKKYMEL | failed
7 | MLIILTGLPSVGKSTFSKAFSKKMAEKNIDNIILGTDLIRESFPVWKESYEEFIRDSNNYLIKEALENKFSVIVDDTNYYNSKRRDLMNIAKECDTNYVTIYLKAPLNLLLKRNIERGQKIPNEVIKNMYEKFDTPGTKYAWDLPDITVDTTEKIDYNEILNEILEINENKNLKIEEDKIPKSEPVESDLVKIDSLTRNIVGNLIKTGKIDKKDIKLLSEIRKSFLKDCKKIESEKLDFEKIEKDFLDYLNKNLK | failed
8 | LEDFNVTSKVIELDVRKPTPEAAENLNIGMDEDIYYVKRVRYINGQTLCYEESYYTKSIVTYLNNEIVSHSIFHYIREGLGLKIGFSDLFLHVGQLNEEEAEYLGLEAGLPKLYIESIFHLTNGQPFDYSKISYNYEQSQFVVQANSFLL | failed
9 | GPGSMYRSRPEPVQGHLFTYYKDPYCKIPVFMMNMDARRCVLWVGGQTESLLSFDYFTNLAEELQGDWAFVQVEVPSGKIGSGPQDHAHDAEDVDDLIGILLRDHCMNEVALFATSTGTQLVFELLENSAHKSSITRVILHGVVCDPENPLFTPEGCAARKEHVEKLMAEGRGEDSLAMLKHYDIPITPARLAGGGFPTLQEAVWNPCIRKEFDVLRRSVGVIKVPLLLMLAHNVQYKPSDEEVGTVLEGVRDHTGCNRVTVSYFNDTCDELRRVLKAAESEHVAAILQFLADEDEFRTETEKNNRIKAAEDEKKRKSVLQVSSFAQAASSVKAS | not failed
10 | MAILHGSWILNEQESCLFIWGETWRSPQVDFNFAEISLNPLALSALELSEWLQSQHQAIAKLLPQQLEKRTSKAASSVKINLLTHSQIIALPTEISQPRKKETILISPVHSAALASESDSEVYLQTWRVEGFCLPPSAAIKLLTSLPLNITSGENAFLGGDLRFWSQIARWSLDLISRSKFLPIIQRQPNNSVSAKWQVLLDSAVDGTRLEKFAAKMPLVCRTYQEIGSGESPIYIDFPSQPQDLILGFLNSAIDTQLREMVGNQPVVETRLMASLPSAVRQWLQALIAASNSIDADAVGLERLEAALKAWTMPLQYQLASKNQFRTCFELRSPEPDETEWTLAYFLQAADDPEFLVDAATIWQNPVEQLIYQQRTIEEPQETFLRGLGLASRLYPVIAPTLDTESPQFCHLKPMQAYEFIKAVAWRFEDSGLGVILPPSLANREGWANRLGLKISAETPKKKPGRLGLQSLLNFQWHLAIGGQTISKAEFDRLVALKSPLVEINGEWVELRPQDIKTAEAFFTARKDQMALSLEDALRLSSGDTQVIEKLPVVSFEASGALQELIGALTNNQAVAPLPTPKNFQGQLRPYQERGAAWLAFLERWGLGACLADDMGLGKTIQFIAFLLHLKEQDVLEKPTLLVCPTSVLGNWEREVRKFAPTLKVLQYHGDKRPKGKAFQEAVKKHDLVITSYSLIHRDIKSLQGIPWQIIVLDEAQNVKNAEAKQSQAVRQLETTFRIALTGTPVENRLQELWSILDFLNPGYLGNKQFFQRRFAMPIEKYGDAASLNQLRALVQPFILRRLKTDRDIIQDLPDKQEMTVFCGLTGEQAALYQKAVETSLAEIESAEGLQRRGMILALLIKLKQICNHPAQYLKINTLEQHSSGKLQRLEEMLEEVLAESNTYGVAGAGRALIFTQFAEWGKLLKPHLEKQLGREIFFLYGGTSKKQREEMIDRFQHDPQGPPIMILSLKAGGVGLNLTRANHVFHFDRWWNPAVENQATDRVFRIGQTRNVQVHKFVCNGTLEEKIHDMIESKKQLAEQVVGAGEEWLTELDTDQLRNLLILDRSTVIDEEAD | failed
11 | SLDLDLQRRVYDIISKAVEGNSAEAGHVIVMESKTGRILSMVTTRNWNDLIGGYIEPGSTIKPLVYAIALETHSASPDFTVECEGSIKPVEQLPVIIRDIEKHGLVDFSAGIVKSCNVMSVKVGELITEKTGVEGFYEWLRKVGFGEKTGIEMEGEIAGVLREPKKWSLIDPAEISIGQGIGVTPVQLIASLNIFANDGYWVKPTILKDSPVKKRRVFSKETTDVIRQAMVRVVEEGTGKLAQVKGIAIAGKTGTAQKAVGGEYRNLYHSLFVGFFPAEDPKYTILVHLDSPSGAFYGGEVAAPVFREIVEILTEKED | failed
12 | LRESEARFRMMADTSPIMLWVADQDKKMTFVNQSWLEFRGATLAEESGNGYLEGIHPDDKGHYLGVYSQAFGDRRRFELEYRYRRVDQQYRWIVNVGVPRYLEDGKFMGYVGSCLDITDRKQAQDILQKKLNQILLMRKISQEIRRSLQPTLIFQTAARQVGNVFAVSRCLIHNYSEATTLQVPVVAEYLGGQFTSLLAGEIAVEQAYDPTIIQGDRAMAVVDLDQDLNSTHTKAFYQRFQVKSFLAVRTSYQGKANGIIALHQCDRQRVWTADEIELLEAIAEQMGIALAQAALLEKERERRRELAQKNLELEKATWAAEAANRAKGEFLAMMSHEIRTPMNGVIGMT | failed
13 | MSEYLPGIIWLVVLLVVNAFFVGAEFAVISARRSQIEPKAEAGSKAAKTTLWAMEHATLMLATSQLGITVCSLVILNVSEPAIHHLLEIPLGLTSLSGEAIGIIAFVAALLLVTFLHVVLGEMVPKNISFSVPTRAALILAPPLVMVARILKPVIWTLNGIANSILRLFKVEPKDEATSAYTLDEVANIVEQSTRDGMLSDTSGTLTAAFEFTSKTVADVEVPIGEMVLLPATSTPADIQRAVAEHGYSRYILTDDDGTPTGYLHLKDVMDLTTREKFDQPVPAKRIRKLASAYSGSELEDALATMRRSGAHVARVFDAAGNTTGVLFLEDIIEELVGEVQDATST | not failed
14 | MAESPRRETLIGGAVVLLGVALLAATSINRHDASGQAGAYQVEAVFNRTDGIGIGSPVRLAGIPIGRIVGHKLDPEYRAIVTMRLDLPNELPDDTAAKIQTDGLLGSKYIELVSLGGGYGTIAPGGRLDYSQDSVIVEDLLVKIVAMAKIKRGLDPDIPAAEQQKAKAASHPQAPPPGGAGDPGDPFGGGAVAPPEVNPFAPGPFEDDPPPPEPGVFSPDPGRDGVSEPPPAQDTRHDMRTNTLNDTAGTAPGAVTLASLPAVQADVEEGR | failed
15 | MPLCLKINKKHGEQTRRILIENNLLNKDYKITSEGNYLYLPIKDVDEDILKSILNIEFELVDKELEEKKIIKKPSFREIISKKYRKEIDEGLISLSYDVVGDLVILQISDEVDEKIRKEIGELAYKLIPCKGVFRRKSEVKGEFRVRELEHLAGENRTLTIHKENGYRLWVDIAKVYFSPRLGGERARIMKKVSLNDVVVDMFAGVGPFSIACKNAKKIYAIDINPHAIELLKKNIKLNKLEHKIIPILSDVREVDVKGNRVIMNLPKFAHKFIDKALDIVEEGGVIHYYTIGKDFDKAIKLFEKKCDCEVLEKRIVKSYAPREYILALDFKINKK | not failed
16 | PTPKTELVQKFRVQYLGMLPVDRPVGMDTLNSAIENLMTSSSKEDWPSVNMNVADATVTVISEKNEEEVLVECRVRFLSFMGVGKDVHTFAFIMDTGNQRFECHVFWCEPNAANVSEAVQAACSGPSSGIEGRGSSGSSGSSGSSGDAAVTPEERHLSKMQQNGYENPTYKFFEQMQN | not failed
17 | MEDERIKLLFKEKALEILMTIYYESLGGNDVYIQYIASKVNSPHSYVWLIIKKFEEAKMVECELEGRTKIIRLTDKGQKIAQQIKSIIDIMENDT | not failed
18 | MTYHASTPSTPLLVTGGTGTLGGHVVPLLREAGHDVRVLTRRTRPATGNGITYVTGDLRTGEGVEAAVDGVHTVLHLAGGPKGDDEATRTLVRAAARADVRHLAYISVVGADRVPLAWLRTKLESERAIADSGLGWTVLRAAQFHELTLTMIEKMTRLPVLPVPGGLRLQPVAAREVAVRLAELTLAEPSGRVPDMTGPEVLDLATLAHSYLDLRGGRRRPKLPVRIPGKAGRAYRSGQNLTLEDALVGKVTWTEFLAERAAV | failed
19 | MGTQRSDTRDQSARLMRRATYASVTVAMTLVVAKLVAWVLTDSVALLSTLIDSLIDVGASLVTLLAVREALTPADEEHRFGHGKAEPLAGLGQAAFIAGSGIFLVIEAAGRLTAPLPVQRGEIGIAVMVFSILATIGLVAYQRRVIAQTKSVAISADSLHYAGDLLINLSVIVSLGLAMTVDLPILDPLFAIAIALWLMKNAWTIGANSVNLLMDRELPPEDRVRIIKLALENPRVFDIHDLRTRSSGPQTFIQLNVELDGEMTLSASHAIVTEIENRLRAAFPGAEVLIHQDPAGIQEDHHPDFAYEDTSALLEADAASQPRRL | failed
20 | MNIVLFHSTLGPRPAVRQAADRLRDAGHQVWTPDLFEGRTFDTVEEGMAHQDGIGREELLKRAVLAAAPYSERGLVYAGFSLGASIAQTLALGDHRARGLLLLHGTSDLAPNASVDELPVQLHVAEPDPFETDDWLSAWYLQMGRIGADVEVHRYPGAGHLYTDPGLDDYDAEAAEATWRVALGFLESLQEAQAGE | failed
